Changes are numbered by the printed parent chain.
T1: CHO.K1-rhesusCD103/beta7
T1 construct: also called CHO.K1-rhCD103/rhBeta7; CHO-K1.rhCD103/rhBeta7
T1 alpha chain (rhesus integrin Alpha-E, CD103): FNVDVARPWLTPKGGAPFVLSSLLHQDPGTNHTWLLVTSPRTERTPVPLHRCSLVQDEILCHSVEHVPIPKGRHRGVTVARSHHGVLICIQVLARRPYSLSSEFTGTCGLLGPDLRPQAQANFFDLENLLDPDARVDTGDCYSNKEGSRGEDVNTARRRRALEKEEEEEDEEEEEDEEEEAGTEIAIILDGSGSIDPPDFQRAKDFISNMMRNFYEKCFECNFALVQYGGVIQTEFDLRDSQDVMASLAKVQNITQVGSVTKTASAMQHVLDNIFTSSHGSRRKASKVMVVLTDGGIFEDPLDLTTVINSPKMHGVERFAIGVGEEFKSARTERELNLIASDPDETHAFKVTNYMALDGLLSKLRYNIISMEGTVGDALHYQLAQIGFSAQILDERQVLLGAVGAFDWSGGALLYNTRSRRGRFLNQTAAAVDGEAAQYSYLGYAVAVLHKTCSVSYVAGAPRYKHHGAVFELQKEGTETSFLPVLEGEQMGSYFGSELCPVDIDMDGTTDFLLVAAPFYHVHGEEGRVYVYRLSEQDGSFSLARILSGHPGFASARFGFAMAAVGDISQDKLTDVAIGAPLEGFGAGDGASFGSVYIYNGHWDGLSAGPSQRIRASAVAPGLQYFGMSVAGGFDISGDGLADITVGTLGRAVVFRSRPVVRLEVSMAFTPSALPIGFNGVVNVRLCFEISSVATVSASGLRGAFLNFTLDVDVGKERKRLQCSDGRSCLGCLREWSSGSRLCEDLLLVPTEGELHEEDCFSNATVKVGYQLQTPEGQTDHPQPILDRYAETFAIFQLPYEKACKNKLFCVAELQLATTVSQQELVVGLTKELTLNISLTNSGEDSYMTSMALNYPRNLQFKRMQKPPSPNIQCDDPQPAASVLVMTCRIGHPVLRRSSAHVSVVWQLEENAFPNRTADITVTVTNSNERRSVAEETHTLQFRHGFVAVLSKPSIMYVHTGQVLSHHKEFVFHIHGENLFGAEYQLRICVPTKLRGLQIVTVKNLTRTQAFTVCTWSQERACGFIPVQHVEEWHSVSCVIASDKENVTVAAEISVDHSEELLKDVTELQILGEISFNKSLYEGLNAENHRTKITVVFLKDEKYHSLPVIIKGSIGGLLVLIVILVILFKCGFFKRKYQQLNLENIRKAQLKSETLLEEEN
T1 beta chain (rhesus integrin Beta-7): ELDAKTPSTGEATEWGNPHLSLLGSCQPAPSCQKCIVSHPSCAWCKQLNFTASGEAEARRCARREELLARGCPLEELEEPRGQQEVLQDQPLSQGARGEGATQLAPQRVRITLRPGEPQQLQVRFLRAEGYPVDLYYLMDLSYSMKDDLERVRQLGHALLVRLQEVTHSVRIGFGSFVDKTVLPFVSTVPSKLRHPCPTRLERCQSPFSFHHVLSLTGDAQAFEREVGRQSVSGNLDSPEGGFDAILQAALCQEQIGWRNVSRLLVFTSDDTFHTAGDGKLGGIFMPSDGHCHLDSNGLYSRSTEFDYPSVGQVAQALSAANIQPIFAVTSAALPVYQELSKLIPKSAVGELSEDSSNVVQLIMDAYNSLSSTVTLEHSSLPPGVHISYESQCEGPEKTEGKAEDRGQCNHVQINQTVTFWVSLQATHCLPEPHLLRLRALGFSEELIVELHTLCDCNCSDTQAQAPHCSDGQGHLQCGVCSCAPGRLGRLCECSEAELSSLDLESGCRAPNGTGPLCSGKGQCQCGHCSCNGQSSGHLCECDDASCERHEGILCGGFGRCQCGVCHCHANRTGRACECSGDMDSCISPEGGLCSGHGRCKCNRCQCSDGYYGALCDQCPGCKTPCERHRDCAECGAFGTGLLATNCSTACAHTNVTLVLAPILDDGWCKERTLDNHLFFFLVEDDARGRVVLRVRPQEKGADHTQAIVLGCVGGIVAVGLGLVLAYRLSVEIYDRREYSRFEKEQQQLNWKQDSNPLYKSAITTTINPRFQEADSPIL

B1: hCD103.07A (antibody, mouse IgG1, V domains shown)
VH: EVQLQESGPSLVKPSQTLSLTCSVTGDSITSGYWNWIRKFPGNKLEYMGYITYSGSTYYNPSLKSRISITRDTSKNQYYLQLNSVTTEDTATYYCARNYYGSSSMDYWGQGTSVTVSS
VL: DIVMTQSQKFMSTSVADRVSVTCKASQNVGSDVAWYQQKPGQSPKSLIYSASYRYSGVPDRFTGSGSGTDFTLTISNVQSEDLAEYFCQQYNSYPSTFGGGTKLEIK
notes: also called clone 07A
B2: hCD103.01A (antibody, V domains shown)
VH: B1 VH with A96T, N98H, S103D, S104A
VL: DIVMTQSHKFMSTSVGDRVSITCKASQDVSIAVAWYQQRPGQSPKLLIYSASYRYTGVPDRFTGSGSGTDFTFTISSVQAEDLAVYYCQQHYSTPWTFGGGTKLEIK
notes: Also tested labelled with AF647, conjugated with Df and labelled with 89Zr; these are written under this molecule; also called clone 01A; hCD103.01 mAb
B3: hCD103.06A (antibody, mouse IgG1, V domains shown)
VH: QVQLQQPGSELVRPGASVKLSCKASGYTFTSYWMHWVKQRHGQGLEWIGNIYPGSGSTNYDEKFKSKGTLTVDTSSSTAYMHLSSLTSEDSAVYYCTRGVYDNPYYFDYWGQGTTLTVSS
VL: DIQMTQSSSNLSVSLGGRVTITCKASDHINNWLAWYQQKPGNAPRVLISGATSLETGVPSRFSGSGSGKDYTLSITSLQTEDVATYYCQQYWSIPLTFGAGTKLELK
notes: also called clone 06A; hCD103.06 mAb
B4: hCD103.05A (antibody, mouse IgG1, V domains shown)
VH: EVQLQQSGPELEKPGASAKISCKASGYSFTGYNMNWVKQSNGKSLEWIGNIDPYYGGTSYNQKFKGKATLTVDKSSSTAYMQLKSLTSEDSAVYYCARSFYGYDAGSPYNYAMDYWGQGTPVTVSP
VL: DIVMTQSHKFMSTSVGDRVSITCKASQDVGTFVAWYQQKPGQSPKLLIYWASTRHTGVPDRFTGSGSGTDFTLTISNVQSEDLADYFCHQYSSYPYTFGGGTQLEIK
notes: Also tested labelled with AF647, conjugated with Df and labelled with 89Zr; these are written under this molecule; also called clone 05A; hCD103.05 mAb

Molecular target: T1, CHO.K1-rhesusCD103/beta7
Experiment: cell ELISA on CHO.K1-rhesusCD103/beta7 cells, abs 450-610

EC50 (read off the curve) [µg/mL]	Binder
~0.02	B1
~0.05	B2
~0.05	B3

Molecular target: T2, human CD103 (integrin Alpha-E) / human integrin Beta-7 heterodimer on cells (human, UniProt P38570 19-1179; P26010 20-798)
T2 construct: the assay field tells which cells; also called hCD103/hBeta7; CHO.K1-hCD103/hBeta7
T2 sequence (P38570 19-1179 limits assumed, chain 1 of 2): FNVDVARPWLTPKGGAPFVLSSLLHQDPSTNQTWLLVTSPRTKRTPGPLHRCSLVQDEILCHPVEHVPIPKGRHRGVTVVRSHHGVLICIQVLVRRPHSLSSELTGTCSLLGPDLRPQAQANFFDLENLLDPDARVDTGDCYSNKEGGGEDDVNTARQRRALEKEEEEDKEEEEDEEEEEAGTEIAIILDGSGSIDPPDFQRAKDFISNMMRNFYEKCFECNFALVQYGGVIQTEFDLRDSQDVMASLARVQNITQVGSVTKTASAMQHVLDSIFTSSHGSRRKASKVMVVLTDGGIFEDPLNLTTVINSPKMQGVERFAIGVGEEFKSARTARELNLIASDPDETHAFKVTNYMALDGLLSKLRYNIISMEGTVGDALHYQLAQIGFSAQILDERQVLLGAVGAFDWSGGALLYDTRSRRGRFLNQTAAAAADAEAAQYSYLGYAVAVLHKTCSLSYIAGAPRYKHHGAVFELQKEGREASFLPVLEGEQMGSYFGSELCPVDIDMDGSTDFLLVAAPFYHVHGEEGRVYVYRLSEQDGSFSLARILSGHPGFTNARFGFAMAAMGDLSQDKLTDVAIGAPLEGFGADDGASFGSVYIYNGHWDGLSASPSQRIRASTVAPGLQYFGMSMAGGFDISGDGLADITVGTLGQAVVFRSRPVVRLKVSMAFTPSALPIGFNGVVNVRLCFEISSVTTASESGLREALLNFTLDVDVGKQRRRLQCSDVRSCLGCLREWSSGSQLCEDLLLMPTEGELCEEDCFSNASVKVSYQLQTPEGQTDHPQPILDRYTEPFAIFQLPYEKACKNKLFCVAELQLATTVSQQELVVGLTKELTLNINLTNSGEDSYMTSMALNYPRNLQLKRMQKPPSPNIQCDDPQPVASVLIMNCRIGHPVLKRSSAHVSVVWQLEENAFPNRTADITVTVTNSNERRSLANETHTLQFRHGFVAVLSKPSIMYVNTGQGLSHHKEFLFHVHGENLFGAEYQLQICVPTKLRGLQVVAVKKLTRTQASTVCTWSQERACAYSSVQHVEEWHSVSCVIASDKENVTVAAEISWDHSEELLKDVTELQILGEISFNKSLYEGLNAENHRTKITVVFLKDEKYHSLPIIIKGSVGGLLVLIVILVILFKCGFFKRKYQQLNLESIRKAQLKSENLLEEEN
T2 sequence (P26010 20-798 limits assumed, chain 2 of 2): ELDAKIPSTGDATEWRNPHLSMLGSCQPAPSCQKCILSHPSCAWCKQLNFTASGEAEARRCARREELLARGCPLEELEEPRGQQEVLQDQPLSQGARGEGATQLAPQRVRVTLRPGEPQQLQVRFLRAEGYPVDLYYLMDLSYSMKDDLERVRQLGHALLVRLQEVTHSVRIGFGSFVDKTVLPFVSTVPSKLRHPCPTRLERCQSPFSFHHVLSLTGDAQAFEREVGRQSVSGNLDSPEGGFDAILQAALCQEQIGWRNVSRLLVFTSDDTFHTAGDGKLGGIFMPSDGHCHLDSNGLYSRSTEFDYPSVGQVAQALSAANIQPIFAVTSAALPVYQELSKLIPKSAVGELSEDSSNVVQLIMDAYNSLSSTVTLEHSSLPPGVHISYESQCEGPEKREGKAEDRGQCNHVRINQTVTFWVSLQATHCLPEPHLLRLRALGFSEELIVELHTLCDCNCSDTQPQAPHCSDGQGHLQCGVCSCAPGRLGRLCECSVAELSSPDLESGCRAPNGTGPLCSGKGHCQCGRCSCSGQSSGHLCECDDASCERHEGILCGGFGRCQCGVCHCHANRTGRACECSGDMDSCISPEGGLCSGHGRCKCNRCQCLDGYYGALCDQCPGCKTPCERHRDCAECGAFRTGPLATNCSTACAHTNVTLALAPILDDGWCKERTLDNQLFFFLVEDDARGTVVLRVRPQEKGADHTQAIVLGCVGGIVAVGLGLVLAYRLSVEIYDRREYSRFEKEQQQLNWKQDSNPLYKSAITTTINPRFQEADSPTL
Experiment: flow cytometry competition on CD103+CD8+ T cells; pre-incubation with unlabeled 02A; table n=1
Method: (§1) Percentage binding of fluorescently labeled mAbs was determined using flow cytometry. Maximum binding was set at 100%.
(§2) Percentage binding of fluorescently labeled mAbs was determined using flow cytometry. Maximum binding was set at 100%

% binding of the fluorescently labeled mAb (IgG pre-incubation = 100) [%]	Binder
4.3	B4
0.5	B1
2.3	B2
104	B3

Molecular target: T2, human CD103 (integrin Alpha-E) / human …
Experiment: cell ELISA on CHO.K1-hCD103/beta7 cells, OD450-620, upper left panel

EC50 (read off the curve) [µg/mL]	Binder
~0.02	B4
~0.02	B2
~0.02	B3

Molecular target: T2, human CD103 (integrin Alpha-E) / human …
Experiment: flow cytometry competition on CD103+CD8+ T cells; pre-incubation with unlabeled BERACT; table n=2
Method: as §1, §2

% binding of the fluorescently labeled mAb (IgG pre-incubation = 100) [%]	Binder
4.9	B4
1	B1
4	B2
109	B3
